Assay results as given in patent US20240343802A1.

Target: CD3 on CD3-expressing T cells (Jurkat, HPB-ALL) (UniProt P07766)
Assay: FACS, HBP-ALL T cells
Parameters: Bmax: unit not given here

- Bmax: 13300
- Kd: 0.461 nM
Substance: OKT3 (commercial anti-CD3 antibody)
